# Source: patent US20210238298A1 (ALLIGATOR BIOSCIENCE, published 2021)
# Numbering of substitutions follows the chain as printed.
# B1: anti-OX40 antibody 1168/1135 (antibody, V domains shown)
# VH: EVQLLESGGGLVQPGGSLRLSCAASGFTFSGSSMSWVRQAPGKGLEWVSSISYYGGYTYYADSVKGRFTISRDNSKNTLYLQMNSLRAEDTAVYYCARYFPHYYFDYWGQGTLVTVSS
# VL: not shown
# notes: Tested as IgG
# B2: anti-OX40 antibody 1542/1135 (antibody, V domains shown)
# VH: EVQLLESGGGLVQPGGSLRLSCAASGFTFGSSSMYWVRQAPGKGLEWVSGIGYYSYSTSYADSVKGRFTISRDNSKNTLYLQMNSLRAEDTAVYYCARGYPHHYFDYWGQGTLVTVSS
# VL: not shown
# notes: Tested as IgG
# B3: anti-OX40 antibody 1164/1135 (antibody, V domains shown)
# VH: B2 VH with G30Y, S31G, G52Y, Y53S, Y54S, S55G, Y56G, S57Y, Y100V, H103G
# VL: not shown
# notes: Tested as IgG
# B4: anti-OX40 antibody 1524/1525 (antibody, V domains shown)
# VH: EVQLLESGGGLVQPGGSLRLSCAASGFTFGSYYMGWVRQAPGKGLEWVSSIGSYYGYTYYADSVKGRFTISRDNSKNTLYLQMNSLRAEDTAVYYCARHDYGALDYWGQGTLVTVSS
# VL: DIQMTQSPSSLSASVGDRVTITCRASQSISSYLNWYQQKPGKAPKLLIYAASSLQSGVPSRFSGSGSGTDFTLTISSLQPEDFATYYCQQYGPSGLFTFGQGTKLEIK
# notes: Tested as IgG
# B5: anti-OX40 antibody 1526/1527 (antibody, V domains shown)
# VH: EVQLLESGGGLVQPGGSLRLSCAASGFTFSGYSMYWVRQAPGKGLEWVSGIGYSGYGTYYADSVKGRFTISRDNSKNTLYLQMNSLRAEDTAVYYCARYYFHDYAAYSLDYWGQGTLVTVSS
# VL: B4 VL with P93S, S94D, G95S, F97L
# notes: Tested as IgG
# B6: anti-OX40 antibody 1482/1483 (antibody, V domains shown)
# VH: EVQLLESGGGLVQPGGSLRLSCAASGFTFSSYAMSWVRQAPGKGLEWVSYISYYSGYTYYADSVKGRFTISRDNSKNTLYLQMNSLRAEDTAVYYCARGYGYLDYWGQGTLVTVSS
# VL: DIQMTQSPSSLSASVGDRVTITCRASQSISSYLNWYQQKPGKAPKLLIYAASSLQSGVPSRFSGSGSGTDFTLTISSLQPEDFATYYCQQYGSLLTFGQGTKLEIK
# notes: Tested as IgG
# Biological target: T1, Human OX40 (R&D systems, #3358_OX) (human, UniProt P43489 29-216)
# T1 construct: Bought; Several catalogue numbers are given for it; also called human OX40 (R&D Systems, 3388-OX); OX40-Fc (R&D systems, #3358_OX); not shown: Fc part
# T1 sequence: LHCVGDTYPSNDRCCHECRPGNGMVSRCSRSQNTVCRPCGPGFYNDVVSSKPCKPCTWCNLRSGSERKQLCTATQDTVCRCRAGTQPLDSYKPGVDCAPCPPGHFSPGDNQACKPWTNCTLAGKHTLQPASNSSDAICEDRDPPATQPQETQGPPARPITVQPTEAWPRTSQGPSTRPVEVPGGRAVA
# Test: ELISA, coated human OX40
# Method: ELISA plates were coated with human OX40 (R&D Systems, 3388-OX), CD40 (Ancell), or CD137 (R&D Systems) at 0.1 or 0.5 μg/ml. The ELISA plates were washed with PBST and then blocked with PBST+2% BSA for 1h at room temperature and then washed again with PBST. The antibodies were added in dilution series to the ELISA plates for 1 h at room temperature and then washed with PBST. Binding was detected using goat anti human kappa light chain HRP, incubated for 1h at room temperature. SuperSignal Pico Luminescent was used as substrate and luminescence was measured using Fluostar Optima.
row,Binder,EC50
1,B1,< 1 nM
2,B2,< 1 nM
3,B3,< 1 nM
4,B4,< 1 nM
5,B5,< 1 nM
6,B6,< 1 nM

# Biological target: T2, OX40 chimera 1549: human OX40 with mouse domains 1A and 4B and non-annotated extracellular region (aa 30-65 … (human; mouse, UniProt P47741 26-61; P47741 125-211)
# T2 construct: domain: 1A;domain: 4B and non-annotated extracellular region; Limits derived as for 1544
# T2 sequence: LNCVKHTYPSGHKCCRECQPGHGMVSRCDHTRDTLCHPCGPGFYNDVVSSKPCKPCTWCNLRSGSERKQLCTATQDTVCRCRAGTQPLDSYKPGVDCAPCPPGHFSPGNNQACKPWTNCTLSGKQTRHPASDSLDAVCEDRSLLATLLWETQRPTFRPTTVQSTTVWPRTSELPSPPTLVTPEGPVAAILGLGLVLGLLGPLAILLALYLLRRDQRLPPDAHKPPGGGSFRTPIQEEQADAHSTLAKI
# Test: flow cytometry, 293-F transfectants
row,Binder,relative MFI vs isotype control
1,B2,13
2,B4,11.2
3,B5,8.5
4,B6,8.7

# Biological target: T3, OX40 chimera 1547: human OX40 with mouse domain 2B, module 3 and domain 4A (aa 83-141), on FreeStyle 293-F … (human; mouse, UniProt P47741 79-139)
# T3 construct: domain: 2B, module 3 and 4A; Limits derived as for 1544
# T3 sequence: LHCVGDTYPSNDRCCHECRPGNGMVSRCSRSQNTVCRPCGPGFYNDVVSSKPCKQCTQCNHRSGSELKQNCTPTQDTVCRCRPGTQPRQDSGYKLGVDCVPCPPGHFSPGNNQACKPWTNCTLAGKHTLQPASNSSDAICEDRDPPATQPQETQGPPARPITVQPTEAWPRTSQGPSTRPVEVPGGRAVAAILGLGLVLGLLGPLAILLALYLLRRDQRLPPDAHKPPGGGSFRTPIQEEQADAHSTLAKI
# Test: flow cytometry, 293-F transfectants
row,Binder,relative MFI vs isotype control
1,B1,1
2,B2,1
3,B3,1
4,B4,1
5,B5,1
6,B6,1

# Biological target: T4, OX40 chimera 1544: human OX40 with mouse domains 1A, 1B and 2A (aa 30-81), on FreeStyle 293-F cells (human; mouse, UniProt P47741 26-77)
# T4 construct: domain: 1A, 1B and 2A
# T4 sequence: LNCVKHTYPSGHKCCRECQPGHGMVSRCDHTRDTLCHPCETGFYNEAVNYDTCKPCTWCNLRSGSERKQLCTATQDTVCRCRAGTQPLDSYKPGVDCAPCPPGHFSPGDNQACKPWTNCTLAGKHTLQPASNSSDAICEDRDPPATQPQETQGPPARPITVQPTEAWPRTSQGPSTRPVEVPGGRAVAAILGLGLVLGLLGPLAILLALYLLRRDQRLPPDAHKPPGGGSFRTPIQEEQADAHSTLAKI
# Test: flow cytometry, 293-F transfectants
row,Binder,relative MFI vs isotype control
1,B1,13.2
2,B2,7.1
3,B3,14
4,B4,1.5
5,B5,1.1
6,B6,8.4

# Biological target: extracellular part of OX40 from Macaca mulatta fused to the transmembrane and intracellular part of hCD40, on … (Macaca mulatta; human, UniProt A0A5F7ZKD5 21-541; P25942 194-277)
# Test: flow cytometry, macOX40-HEK cells; 95% confidence interval
# Method: (§1) For the assay, the transfected cells were incubated with the test antibodies and controls for 30 min at 4° C. and then detected with a-huIgG-PE (Jackson Immunoresearch) 30 min 4° C. Cells were analyzed by flow cytometry with FACS Verse (BD Biosciences).
row,Binder,EC50
1,B1,0.0905 to 0.194 µg/mL
2,B2,0.722 to 1.41 µg/mL
3,B5,0.292 to 0.589 µg/mL
4,B6,0.157 to 0.312 µg/mL

# Biological target: T5, extracellular part of human OX40 fused to the transmembrane and intracellular part of hCD40, on CHO cells (human, UniProt P25942 194-277, limits assumed)
# T5 construct: domain: transmembrane and intracellular part; also called hOX40 overexpressed on CHO cells; huOX40 (CHO)
# T5 sequence: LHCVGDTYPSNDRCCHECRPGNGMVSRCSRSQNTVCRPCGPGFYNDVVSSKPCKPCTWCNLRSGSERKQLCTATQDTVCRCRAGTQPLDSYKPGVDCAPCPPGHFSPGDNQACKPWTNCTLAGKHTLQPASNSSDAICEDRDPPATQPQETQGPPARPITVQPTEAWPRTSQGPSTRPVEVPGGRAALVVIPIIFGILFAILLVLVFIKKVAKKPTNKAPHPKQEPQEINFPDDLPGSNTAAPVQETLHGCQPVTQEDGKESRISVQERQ
# Test: flow cytometry, CHO cells with human OX40 (extracellular part on hCD40 transmembrane and intracellular part), anti-huIgG-PE
# Method: The extracellular part of human OX40 was fused to the transmembrane and intracellular part of hCD40 and cloned into pcDNA3.0. The vector was subsequently stably transfected into CHO cells. […] For the assay, the transfected cells were incubated with the test antibodies and controls for 30 min at 4° C. and then detected with a-huIgG-PE (Jackson Immunoresearch) 30 min 4° C. Cells were analyzed by flow cytometry with FACS Verse (BD Biosciences).
row,Binder,EC50 (read off the curve)
1,B3,~0.01 µg/mL
2,B4,~0.05 µg/mL

# Biological target: T5, extracellular part of human OX40 fused …
# Test: flow cytometry, cells with human OX40; 95% confidence interval
# Method: as §1
row,Binder,EC50
1,B1,0.0636 to 0.131 µg/mL
2,B2,0.322 to 0.552 µg/mL
3,B5,0.172 to 0.429 µg/mL
4,B6,0.082 to 0.182 µg/mL
